Here are results for one substance from paper PMC3405053.

The assay addresses MKP-3, endogenous in mouse liver (mouse (endogenous in C57BL/6 liver)) (UniProt Q9DBB1). As to the kind of experiment: co-IP; liver lysates of C57BL/6 mice injected with adenoviruses (GFP or FOXO1 3A, plus shGFP or shMKP-3); MKP-3 immunoprecipitated with MKP-3 antibody-bound Exactra D matrix; western blot for FOXO1, quantified.
Chain of UniProt Q9DBB1 (Q9DBB1 whole entry): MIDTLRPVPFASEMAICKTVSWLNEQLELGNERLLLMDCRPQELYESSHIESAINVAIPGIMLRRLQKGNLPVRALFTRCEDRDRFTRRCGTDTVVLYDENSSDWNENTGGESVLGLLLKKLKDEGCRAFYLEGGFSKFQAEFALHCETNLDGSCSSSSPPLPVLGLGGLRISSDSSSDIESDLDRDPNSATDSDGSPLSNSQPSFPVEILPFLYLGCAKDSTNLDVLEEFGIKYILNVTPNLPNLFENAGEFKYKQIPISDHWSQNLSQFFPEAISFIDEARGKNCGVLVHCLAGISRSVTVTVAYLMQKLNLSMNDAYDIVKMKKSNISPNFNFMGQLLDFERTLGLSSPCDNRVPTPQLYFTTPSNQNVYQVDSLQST

Consider “FOXO1 3A (Akt phosphorylation resistant FOXO1 mutant), over-expressed in mouse liver (from UniProt Q9R1E0 1-652) (natural protein)”, for which the fold of FOXO1/FOXO1 3A protein associated with MKP-3 compared to GFP control is 7.9 fold.
